Positions count from the first letter of the chain named. Blank lines part the entries; values can stand above or below the binder they belong to.
Legend:
[1] = biological target: T1, human CD3 expressed on cells (Jurkat cells; human primary T cells) (human, UniProt P07766 23-207; P04234 22-171; P09693 23-182); experiment: flow cytometry, 25 nM, Jurkat cells
T1 construct: whole, on cells
Protocol: (§1) Purified antibodies were confirmed to bind CD3 expressed on cells using the CytoFLEX S or LX flow cytometers (Beckman Coulter). Antibodies were diluted to 25 nM in FACS buffer (PBS+2% FBS) and were incubated with CD3-expressing cells for 30 minutes at 4° C. […] The median fluorescence intensity of the binding signal for each antibody was normalized to the isotype control to obtain a fold over isotype value. An antibody with a fold over isotype (FOI) of ≥10 was considered to be positive for binding.

[2] = biological target: T2, cynomolgus monkey CD3 expressed on cyno primary T cells (cynomolgus monkey, UniProt Q95LI5 22-198; Q95LI8 22-171; Q95LI7 23-181); experiment: flow cytometry, cyno primary T cells
T2 construct: whole, on cells; CD3 complex on purified cynomolgus monkey CD3 pan T cells; also called cyno CD3
Protocol: as §1

[3] = biological target: T1, human CD3 expressed on cells (Jurkat …); experiment: flow cytometry, 25 nM, human primary T cells
Protocol: as §1

T1 sequence (P07766 23-207, chain 1 of 3): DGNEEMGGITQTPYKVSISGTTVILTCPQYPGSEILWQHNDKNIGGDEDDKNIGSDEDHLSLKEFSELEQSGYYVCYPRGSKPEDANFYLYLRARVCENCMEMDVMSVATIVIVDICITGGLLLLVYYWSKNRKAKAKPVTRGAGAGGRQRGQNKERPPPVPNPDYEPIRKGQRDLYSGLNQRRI
T1 sequence (P04234 22-171, chain 2 of 3): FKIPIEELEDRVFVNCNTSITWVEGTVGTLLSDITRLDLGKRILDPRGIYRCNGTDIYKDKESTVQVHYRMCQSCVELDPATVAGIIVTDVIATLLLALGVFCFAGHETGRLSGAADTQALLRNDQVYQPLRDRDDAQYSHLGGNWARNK
T1 sequence (P09693 23-182, chain 3 of 3): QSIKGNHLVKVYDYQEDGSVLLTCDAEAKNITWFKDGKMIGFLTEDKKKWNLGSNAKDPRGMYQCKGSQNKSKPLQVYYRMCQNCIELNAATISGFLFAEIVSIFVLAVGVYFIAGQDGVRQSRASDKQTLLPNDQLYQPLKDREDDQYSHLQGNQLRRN
T2 sequence (Q95LI5 22-198, chain 1 of 3): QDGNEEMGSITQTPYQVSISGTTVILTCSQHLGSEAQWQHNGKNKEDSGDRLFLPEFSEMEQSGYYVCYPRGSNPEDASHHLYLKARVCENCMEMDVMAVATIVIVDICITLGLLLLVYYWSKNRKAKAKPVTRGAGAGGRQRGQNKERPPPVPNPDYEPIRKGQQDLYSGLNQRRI
T2 sequence (Q95LI8 22-171, chain 2 of 3): as the sequence (P04234 22-171, chain 2 of 3) above, with I5V, N15K, I20V, S32T, D33N, I34N, T64A, S74N, V83L, H141R counted along it
T2 sequence (Q95LI7 23-181, chain 3 of 3): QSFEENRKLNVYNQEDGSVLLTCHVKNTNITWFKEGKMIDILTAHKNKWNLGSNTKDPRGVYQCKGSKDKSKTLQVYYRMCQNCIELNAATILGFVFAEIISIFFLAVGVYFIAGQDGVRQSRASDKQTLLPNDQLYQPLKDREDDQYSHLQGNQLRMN

- Binding (FOI) [1]: 165 FOI
- Binding (FOI) [3]: 184 FOI
B3: mAb 189 (antibody, V domains shown)
VH: QVQLVESGGGVVQPGRSLRLSCAASGFTFSGYGMHWVRQAPGKGLEWVAIIYYDGKNKYYADSVKGRFTISRDNSKSTLYLQMNSLGADDTAVYYCTRGKGYNWFDPWGQGTLVTVSS
VL: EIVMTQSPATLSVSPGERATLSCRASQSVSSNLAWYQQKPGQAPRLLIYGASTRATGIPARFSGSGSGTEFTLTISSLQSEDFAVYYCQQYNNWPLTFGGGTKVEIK
notes: VH/VL only
- binding result [2]: no binding (tested: FOI <10 (FOI >=10 = positive); 25 nM)

- Binding (FOI) [1]: 172 FOI
- Binding (FOI) [3]: 225 FOI
B4: mAb 199 (antibody, V domains shown)
VH: B3 VH with D54N, N57K, K58E, S71F, S77N, Q82H, G87R, D89E, K100E
VL: EIVMTQSPATLSVSPGERATLSCRASQSVSRNLAWYQQKPGQAPRLLIYGASTRATGIPARFSGSGSGTEFTLTISSLQSEDFAVYYCQQYNNWPLTFGGGTKVEIK
notes: VH/VL only
- binding result [2]: no binding (tested: FOI <10 (FOI >=10 = positive); 25 nM)

- Binding (FOI) [1]: 176 FOI
- Binding (FOI) [3]: 223 FOI
B5: mAb 192 (antibody, V domains shown)
VH: B3 VH with D54N, N57K, K58E, S77N, G87R, D89E, K100E, T112I
VL: B4 VL with R31S, Q89K, N92K
notes: VH/VL only
- binding result [2]: no binding (tested: FOI <10 (FOI >=10 = positive); 25 nM)

- Binding (FOI) [1]: 166 FOI
- Binding (FOI) [3]: 210 FOI
B7: mAb 201 (antibody, V domains shown)
VH: B3 VH with D54N, N57K, K58E, S77N, G87R, D89E, K100E
VL: B4 VL with R31S, N32S
notes: VH/VL only
- binding result [2]: no binding (tested: FOI <10 (FOI >=10 = positive); 25 nM)

- Binding (FOI) [1]: 182 FOI
- Binding (FOI) [3]: 231 FOI
B10: mAb 198 (antibody, V domains shown)
VH: QVQLVESGGGVVQPGGSLRLSCAASGFTFSGYGMHWVRQAPGKGLEWVAIIWYNGRKTYYAESVKGRFTISRDNSKNTLSLQMNSLRIEDTAVYYCTTGQGYNWFDPWGQGTLVTVSS
VL: B4 VL with R31S, Y91F, N93A, V104M
notes: VH/VL only
- binding result [2]: no binding (tested: FOI <10 (FOI >=10 = positive); 25 nM)

- Binding (FOI) [1]: 232 FOI
- Binding (FOI) [3]: 185 FOI
B12: mAb 286 (antibody, V domains shown)
VH: EVKLVESGGGVVRPGGSLRLSCAASGFTFDDYGMSWVRQAPGKGLEWVSGISWNGGSTGYADSVKGRFTISRDNAKNSLYLQMNSLRAEDTALYHCARDGVPVVKRRYYYYYMDVWGKGTTVTVSS
VL: EIVLTQSPDFQSVTPKEKVTITCRASQSIGSSLHWYQQKPDQSPKLLIKYASQSFSGVPSRFSGRGSGTDFTLTINSLEAEDAATYYCHQSGSLPQTFGQGTKVEIK
notes: VH/VL only
- binding result [2]: no binding (tested: FOI <10 (FOI >=10 = positive); 25 nM)

- Binding (FOI) [1]: 96.6 FOI
- Binding (FOI) [3]: 118 FOI
B18: mAb 175 (antibody, V domains shown)
VH: EVELVESGGGLVQPGGSLRLSCAASGFTFSSNWMSWVRQAPGKGLEWVANIKQDGSEKYYVDSVKGRFTISRDNAKNSLYLKMNSLRAEDTAVYYCARDCSSNWYWYFDLWGRGTLVTVSS
VL: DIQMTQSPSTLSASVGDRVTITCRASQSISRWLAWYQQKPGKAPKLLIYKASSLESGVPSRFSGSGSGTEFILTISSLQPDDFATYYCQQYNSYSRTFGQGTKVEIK
notes: VH/VL only
- binding result [2]: no binding (tested: FOI <10 (FOI >=10 = positive); 25 nM)

Continued, binder first:

B1: mAb 170 (antibody, V domains shown)
VH: EVQLVESGGGLVRPGRSLRLSCAASGFTFDDYTMHWVRQAPGKGLEWVSGISWNSGSIGYADSVKGRFTISRDNAKNSLYLQMNSLRAEDTALYYCSKDSSGYGYYLNYSLDVWGKGTTVTVSS
VL: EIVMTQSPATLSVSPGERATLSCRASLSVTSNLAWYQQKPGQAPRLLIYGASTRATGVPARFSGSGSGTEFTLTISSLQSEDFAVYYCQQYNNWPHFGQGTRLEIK
notes: VH/VL only
- Binding (FOI) [1]: 117 FOI
- binding result [2]: no binding (tested: FOI <10 (FOI >=10 = positive); 25 nM)
- Binding (FOI) [3]: 120 FOI

B2: mAb 188 (antibody, V domains shown)
VH: B3 VH with D54N, N57K, K58E, S77N, G87R, D89E, K100E
VL: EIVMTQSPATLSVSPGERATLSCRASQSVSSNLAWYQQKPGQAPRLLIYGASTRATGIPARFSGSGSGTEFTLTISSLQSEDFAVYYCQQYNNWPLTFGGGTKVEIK
notes: VH/VL only
- Binding (FOI) [1]: 171 FOI
- binding result [2]: no binding (tested: FOI <10 (FOI >=10 = positive); 25 nM)
- Binding (FOI) [3]: 216 FOI

B6: mAb 197 (antibody, V domains shown)
VH: B10 VH with I88V
VL: B4 VL with R31S, Y91F, N93A, V104M
notes: VH/VL only
- Binding (FOI) [1]: 183 FOI
- binding result [2]: no binding (tested: FOI <10 (FOI >=10 = positive); 25 nM)
- Binding (FOI) [3]: 260 FOI

B8: mAb 203 (antibody, V domains shown)
VH: B10 VH with S30R, W52Y, I88V, T98A
VL: B4 VL with R31S, Y91F, N93A, V104M
notes: VH/VL only
- Binding (FOI) [1]: 201 FOI
- binding result [2]: no binding (tested: FOI <10 (FOI >=10 = positive); 25 nM)
- Binding (FOI) [3]: 285 FOI

B9: mAb 191 (antibody, V domains shown)
VH: B3 VH with D54N, N57K, K58E, S77N, G87R, D89E, K100E
VL: B4 VL with R31S, E70D, D82H, N92T
notes: VH/VL only
- Binding (FOI) [1]: 170 FOI
- binding result [2]: no binding (tested: FOI <10 (FOI >=10 = positive); 25 nM)
- Binding (FOI) [3]: 212 FOI

B11: mAb 287 (antibody, V domains shown)
VH: B12 VH with K3Q
VL: B12 VL with R65S, G92A
notes: VH/VL only
- Binding (FOI) [1]: 156 FOI
- binding result [2]: no binding (tested: FOI <10 (FOI >=10 = positive); 25 nM)
- Binding (FOI) [3]: 107 FOI

B13: mAb 290 (antibody, V domains shown)
VH: B12 VH with K3Q
VL: B12 VL with V19I, R65S, G92A
notes: VH/VL only
- Binding (FOI) [1]: 135 FOI
- binding result [2]: no binding (tested: FOI <10 (FOI >=10 = positive); 25 nM)
- Binding (FOI) [3]: 99.8 FOI

B14: mAb 172 (antibody, V domains shown)
VH: EVQLVESGGGLVQPGRSLRLSCTTSGFTFDDYTMHWVRQVPGKGLEWVSDISWNSGSVGYADSVKGRFTISRDNAKNSLYLQMNSLRAEDTALYYCVKDSSGYGHYFHYYMDVWGKGTTVTVSS
VL: DIQMTQSPSSLSASVGDRVTITCRASQSISNYLNWYQVKPGKAPKVLIYAASSLQSGVPSRFSGSGSGTDFTLTISSLQPEDFVSYYCHQSYNAPITFGQGTRLESK
notes: VH/VL only
- Binding (FOI) [1]: 111 FOI
- Binding (FOI) [3]: 167 FOI

B15: mAb 173 (antibody, V domains shown)
VH: B14 VH with T23A, T24A
VL: B14 VL with A94T, S106I
notes: VH/VL only
- Binding (FOI) [1]: 109 FOI
- Binding (FOI) [3]: 169 FOI

B16: mAb 273 (antibody, V domains shown)
VH: EVQLVESGGGLVQPGESLKLSCTASGFTFSVSAIHWVRQASGKGLEWVGRIRSKANSYATAYVASVKGRFTLSRDDSKNTAYLQMNSLKTEDTAVYYCSSYYFVSGTYYNHWGQGTLVTVSS
VL: DIQMTQSPSSLSASVGDRVTITCRASQGIRYDLGWYQQKPGRAPKRLIHSVSSLQSGVPSRFSGSGSGTEFTLTISSLQPEDFATYYCLQHNVNPCTFGQGTKLEIK
notes: VH/VL only
- Binding (FOI) [1]: 53.1 FOI
- Binding (FOI) [3]: 24.2 FOI

B17: mAb 174 (antibody, V domains shown)
VH: B18 VH with E3Q, Y60S, K82Q, C100R, S102R, W104Y
VL: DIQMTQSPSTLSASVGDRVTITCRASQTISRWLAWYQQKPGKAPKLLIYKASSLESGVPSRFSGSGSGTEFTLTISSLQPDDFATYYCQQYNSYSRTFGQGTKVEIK
notes: VH/VL only
- Binding (FOI) [1]: 130 FOI
- binding result [2]: no binding (tested: FOI <10 (FOI >=10 = positive); 25 nM)
- Binding (FOI) [3]: 231 FOI

B19: mAb 285 (antibody, V domains shown)
VH: EVQLLESGGGLGQPGGSLRLSCAASGFTFSNYAMSWVRQAPGKGLEWVSVISGSGGDKNYADSVKGRFTISRDNSKNTLYLQMNSLRAEDTAVYYCAKKYSYYYYYMDVWGKGTTVTVSS
VL: SYELTQPLSVSVALGQTARITCGGNNIGSKDVHWYQQKPGQAPVLVIYRDSNRPSGIPERFSGSNSGNTATLTISSAQAGDEADYYCQVWDSRTAVFGGGTQLTAL
notes: VH/VL only
- Binding (FOI) [1]: 232 FOI
- binding result [2]: no binding (tested: FOI <10 (FOI >=10 = positive); 25 nM)
- Binding (FOI) [3]: 229 FOI

From patent US20230295310A1 (ABCELLERA BIOLOGICS, published 2023)
